Measurements reported in patent US5955073.

Target: human transferrin receptor (human) (UniProt P02786)

Substance “454A12-RNase conjugate (monoclonal antibody 454A12 against the human transferrin receptor coupled to RNase A)” has an inhibition of protein synthesis of K562 cells (% inhibition (P1, 0.1 µM)) of 99.
